Measurements as given in patent US20240358731A1, “SUMO PATHWAY AS AN OXYGEN SENSOR RELEVANT TO THE PATHOPHYSIOLOGY OF PULMONARY ARTERY HYPERTENSION AND CARDIAC ARRHYTHMIA” (Northeastern University, priority 2023, published 2024).
Several values for one entry are separate records, joined by “and”; a condition that tells them apart may be missing. Equal entries are not always repeated. Entries after “also recorded” stand apart in the source; their conditions may differ.

T1: Kir2.3 (Homo sapiens, UniProt P48050)
T1 construct: expressed in transfected cells; host or cells: Xenopus oocytes
T1 sequence (P48050 1-445): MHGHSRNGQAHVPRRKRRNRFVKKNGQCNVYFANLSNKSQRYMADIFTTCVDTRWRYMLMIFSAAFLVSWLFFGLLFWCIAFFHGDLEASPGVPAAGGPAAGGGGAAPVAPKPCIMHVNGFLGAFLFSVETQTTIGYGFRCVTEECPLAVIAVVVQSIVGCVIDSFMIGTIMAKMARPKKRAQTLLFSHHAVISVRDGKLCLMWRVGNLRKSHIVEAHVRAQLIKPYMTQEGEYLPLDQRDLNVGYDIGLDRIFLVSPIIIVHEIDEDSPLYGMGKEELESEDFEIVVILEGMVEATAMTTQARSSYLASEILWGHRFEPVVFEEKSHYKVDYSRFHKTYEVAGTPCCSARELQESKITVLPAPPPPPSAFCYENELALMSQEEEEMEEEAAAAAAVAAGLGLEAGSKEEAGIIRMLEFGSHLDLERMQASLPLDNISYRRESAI

T2: Kir2.4 (Homo sapiens, UniProt Q9UNX9)
T2 sequence (Q9UNX9 1-436): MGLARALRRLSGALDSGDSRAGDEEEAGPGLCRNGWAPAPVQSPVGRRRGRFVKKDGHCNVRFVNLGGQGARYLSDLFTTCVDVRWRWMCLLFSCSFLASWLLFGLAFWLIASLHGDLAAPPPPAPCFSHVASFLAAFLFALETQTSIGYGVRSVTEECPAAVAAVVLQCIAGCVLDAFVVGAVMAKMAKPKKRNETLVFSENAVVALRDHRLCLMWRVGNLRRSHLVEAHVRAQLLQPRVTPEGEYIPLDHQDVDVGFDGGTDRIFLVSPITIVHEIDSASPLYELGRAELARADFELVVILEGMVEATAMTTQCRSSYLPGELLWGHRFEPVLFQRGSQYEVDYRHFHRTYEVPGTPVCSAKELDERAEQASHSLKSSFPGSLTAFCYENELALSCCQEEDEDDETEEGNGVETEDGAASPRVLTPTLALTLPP


Assays:
Format in all cases: cell-based
[1] = test system: human pulmonary artery smooth muscle cells; experiment: Whole cell patch clamp of human pulmonary artery smooth muscle cells, ambient O2 vs acute hypoxia; conditions: pretreatment with 100 nM
Source text: FIGS. 10A-10B show whole cell patch clamp recording of human pulmonary artery smooth muscle cells. […] The decrease is statistically significant, *, P<0.05 by Students t-test.
The hPASMCs are in primary culture and were studies by whole cell patch clamp at ambient levels of oxygen (˜21% O2) and under acute hypoxia (2% O2). Cells were studied in quasi-physiological buffers with high external concentrations of potassium using recording protocols.

Kir2.3 = biological target: T1, Kir2.3; experiment: Two-electrode voltage-clamp of Kir2.3 currents in Xenopus oocytes; conditions: co-expression
Source text: FIG. 5A discloses SEQ ID NOS 6-9, respectively, in order of appearance. […] SENP1 increases the current. […] SUMO sensitivity is transferred to Kir2.3 when the site in Kir2.1 is recreated by mutagenesis (Kir2.3-N25D).
Co-expressed SUMO decreases Kir2.4 currents in Xenopus oocytes. Using the SUMOplot algorithm to assess potential SUMOylation sites based on the canonical motif ψ-K-X-E/D, we identified the high probability SUMO site V-K54-K-D (SEQ ID NO: 4) in the N-terminal sequence of Kir2.4. SUMO covalently modifies Kir2.4 at K54 (FIG. 5) and tested the idea using two-electrode voltage-clamp (TEVC), a sensitive assay to study the regulation of Kir channels. Kir2.4 currents, assessed at −80 mV in a high K^+ (96 mM) bath solution, decreased in a dose-dependent manner with co-expression of SUMO1 (FIG. 5). Co-injection of 5 ng of human SUMO1 RNA decreased Kir2.4 currents by ˜50%. In contrast, expression of SENP1 increased Kir2.4 by ˜50%. […] The analogous sequence in Kir2.2 and Kir2.3 is V-K-K-N(SEQ ID NO: 5), which lacks the terminal aspartic acid, reduced the probability of SUMOylation from 0.93 to 0.31. Consistent with this, Kir2.3 currents were insensitive to SUMO1 and SENP1. […] This last result is consistent with a protein-protein interaction between the channel and SUMO1.

Kir2.4 = biological target: T2, Kir2.4; experiment: Whole-cell patch-clamp of Kir2.4 in HEK293 cells with SUMO1 or SENP1 in the recording pipette; design: expressed in transfected cells
Protocol: Currents were measured at −80 mV in 140 mM external K+.
Similarly, currents were no longer enhanced by SENP1.
SUMOylation regulates Kir2.4 channels in mammalian cells. Next, we tested if SUMO could regulate Kir2.4 channels in mammalian cells. Kir2.4 channels were transiently expressed in HEK293 cells and studied in whole-cell mode with 140 mM bath [K]^+, using a ramp protocol from −80 to +80 mV. Purified SUMO1 or SENP1 peptide were introduced via the recording pipette. At 1 nM, SUMO1, but not heat-denatured SUMO1, inhibited Kir2.4 currents by ˜40 and 60%, respectively, within one-minute of breakthrough. In contrast, 1 nM SENP1 increased the current by ˜50% (FIG. 7).
The PIP2-dependence of SUMO-regulation. Using the 5-ptaseOCRL system, we depleted PIP2 in HEK293 cells expressing Kir2.4 and studied currents with 1 nM SUMO1, or SENP1 in the recording pipette. When currents were recorded after 5-min activation of the optogenetic probe, 5-ptaseOCRL, the inhibitory effect of 1 nM SUMO1 on Kir2.4 was reduced from ˜40% to ˜7% (FIG. 9). Current augmentation observed with SENP1 in the pipette was reduced from […] to ˜6%. These preliminary data support the conclusion that SUMO-regulation of Kir2.4 channels is PIP2-dependent.

Row | sensitivity of Kir2.3 currents (Kir2.3) | inhibition of Kir2.4 currents after PIP2 depletion (Kir2.4; 1 nM SUMO1, after 5-min activation of 5-ptaseOCRL) [%] | inhibition of Kir2.4 currents (Kir2.4; 1 nM in pipette, 140 mM bath K+, within one-minute of breakthrough) | increase of Kir2.4 current (Kir2.4; 1 nM SENP1 in pipette) | Kir2.4 current augmentation after PIP2 depletion (Kir2.4; 1 nM SENP1 in pipette, after 5-min activation of 5-ptaseOCRL) [%] | Molecule | effect on hypoxia-induced change of hPASMC inward current ([1]; 2% O2) | effect on initial current in ambient O2 ([1]; ambient O2)
1 | – | – | – | – | – | Cc1sc(C(=O)c2cncnc2N[C@@H]2C[C@H](COS(N)(=O)=O)[C@@H](O)C2)cc1[C@@H]1NCCc2ccc(Cl)cc21 [TAK981, Subasumstat] | prevents hypoxia induced changes; also recorded: precludes the change in the current caused by acute hypoxia | does not alter the magnitude or the phenotype of the initial current
2 | insensitive | ~7 | ~40% and ~60% | – | – | SUMO1: purified SUMO1 (small ubiquitin-related modifier) protein introduced via the recording pipette or co-expressed | – | –
3 | insensitive | – | – | ~50% and ~40% | ~6 | SENP1: purified deSUMOylating enzyme (SUMO specific protease) introduced via the recording pipette or expressed (protein, UniProt Q9P0U3 1-644, looked up) Sentrin-specific protease 1: MDDIADRMRMDAGEVTLVNHNSVFKTHLLPQTGFPEDQLSLSDQQILSSRQGHLDRSFTCSTRSAAYNPSYYSDNPSSDSFLGSGDLRTFGQSANGQWRNSTPSSSSSLQKSRNSRSLYLETRKTSSGLSNSFAGKSNHHCHVSAYEKSFPIKPVPSPSWSGSCRRSLLSPKKTQRRHVSTAEETVQEEEREIYRQLLQMVTGKQFTIAKPTTHFPLHLSRCLSSSKNTLKDSLFKNGNSCASQIIGSDTSSSGSASILTNQEQLSHSVYSLSSYTPDVAFGSKDSGTLHHPHHHHSVPHQPDNLAASNTQSEGSDSVILLKVKDSQTPTPSSTFFQAELWIKELTSVYDSRARERLRQIEEQKALALQLQNQRLQEREHSVHDSVELHLRVPLEKEIPVTVVQETQKKGHKLTDSEDEFPEITEEMEKEIKNVFRNGNQDEVLSEAFRLTITRKDIQTLNHLNWLNDEIINFYMNMLMERSKEKGLPSVHAFNTFFFTKLKTAGYQAVKRWTKKVDVFSVDILLVPIHLGVHWCLAVVDFRKKNITYYDSMGGINNEACRILLQYLKQESIDKKRKEFDTNGWQLFSKKSQEIPQQMNGSDCGMFACKYADCITKDRPINFTQQHMPYFRKRMVWEILHRKLL | – | –
